The series deals with the molecule itself. Kind of series: SDS-PAGE with western blot. (In western blotting, separated proteins are transferred to a membrane and probed.)

B1: His-tagged ectromelia virus strain Moscow gene 141 profilin homolog (ECTV-PH) (natural protein)
chain: MAAEWHKIIEDVSKNNKFEDAAIVDYKTKKNVLAAIPNRTFAKIIPGEVIALITNRNILKPRIGQKFFIVYTNSLMDENTYTMELLTGYAPVSPIVIARTHTALIFLMGKPTTSRREVYRTCRDYATNVRATGN
notes: also called ECTV-Moscow 141; His-ECTV-PH; not shown: His6, N-terminal, kept
By stoichiometry N is commonly meant the number of molecules, sites or subunits per partner or assembly. Regarding B1, the “stoichiometry N” value is 2.

(Values after publication PMC1964790, “An ectromelia virus profilin homolog interacts with cellular tropomyosin and viral A-type inclusion protein” (Virology Journal, 2007).)
